# Measurements published in patent publication EP4269437A1 (Zhejiang Nanomab Technology Center Co. Ltd., dated 2023).
# Columns and labels:
# PD-1.His = biological target: T1, PD-1.His (UniProt Q15116 25-170, limits assumed); assay: SPR, antibody captured on protein A, PD-1.His in flow
# T1 construct: not shown: His tag
# PD-1 = biological target: T2, PD-1 (UniProt Q15116 25-170, limits assumed); assay: SPR; set-up and antigen form not restated
# T2 construct: also called PD-1 protein
# human PD-1.Fc = biological target: T3, human PD-1.Fc (human, UniProt Q15116 25-170, limits assumed); assay: SPR, antibody captured on protein A, PD-1.Fc in flow
# T3 construct: also called PD-1; Fc protein; PD-1.hFc; not shown: human IgG Fc fragment
# T3 sequence (Q15116 25-170 limits assumed): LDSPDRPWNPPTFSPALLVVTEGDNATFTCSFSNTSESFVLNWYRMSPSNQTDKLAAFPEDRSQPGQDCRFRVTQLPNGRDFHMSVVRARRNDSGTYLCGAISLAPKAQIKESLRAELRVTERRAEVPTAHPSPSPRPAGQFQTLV
# T2 sequence (Q15116 25-170 limits assumed): as above
# T1 sequence (Q15116 25-170 limits assumed): as above
Kd (PD-1.His) [nM],koff (PD-1.His) [s⁻¹],kon (PD-1.His) [M⁻¹ s⁻¹],Kd (human PD-1.Fc) [nM],koff (human PD-1.Fc) [s⁻¹],kon (human PD-1.Fc) [M⁻¹ s⁻¹],Binder,other results
15,9.73e-05,6480,,,,"NB182-z4 (Fc fusion, format not restated; not shown: IgG4 constant region of vector pCDNA3.4-IgG4) heavy: EVQLVESGGGLVQPGGSLRLSCSASGDTSFISAAGWYRQAPGKERELVSAITNTGITYYPDSVKGRFTISRDNSKNTVYLQMNNLRAEDTAVYYCNAGAPPPGGLGYDESDYWGQGTQVTVSS",
14,9.07e-05,6460,,,,"NB182-z5 (Fc fusion, format not restated; not shown: IgG4 constant region of vector pCDNA3.4-IgG4) heavy: EVQLVESGGGLVQPGGSLRLSCSASGDTSFISAAGWYRQAPGKERELVAAITNTGITYYPDSVKGRFTISRDNSKNTVYLQMNSLRAEDTAVYYCNAGAPPPGGLGYDESDYWGQGTLVTVSS",
8.25,7.61e-05,9220,,,,"NB182-z1 (Fc fusion, format not restated; not shown: IgG4 constant region of vector pCDNA3.4-IgG4) heavy: EVQLVESGGGLVQPGGSLRLSCSASGDTSFISAAGWYRQAPGKERELVSAITNTGITYYPDSVKGRFTISRDNSKNTVYLQMNSLRAEDTAVYYCNAGAPPPGGLGYDESDYWGQGTQVTVSS",
11.8,7.11e-05,6000,,,,"NB182-z3 (Fc fusion, format not restated; not shown: IgG4 constant region of vector pCDNA3.4-IgG4) heavy: EVQLVESGGGLVQPGGSLRLSCSASGDTSFISAAGWYRQAPGKERELVSAITNTGITYYPDSVKGRFTISRDNSKNTLYLQMNNLRAEDTAVYYCNAGAPPPGGLGYDESDYWGQGTQVTVSS",
8.2,4.59e-05,5600,,,,"NB182-z2 (Fc fusion, format not restated; not shown: IgG4 constant region of vector pCDNA3.4-IgG4) heavy: EVQLVESGGGLVQPGGSLRLSCSASGDTSFISAAGWYRQAPGKERELVSAITNTGITYYPDSVKGRFTISRDNAKNTVYLQMNSLRAEDTAVYYCNAGAPPPGGLGYDESDYWGQGTQVTVSS",
0.598,7.92e-05,133000,,,,"NB194-z5 (Fc fusion, format not restated; not shown: IgG4 constant region of vector pCDNA3.4-IgG4) heavy: EVQLVESGGGLVQPGGSLRLSCAASGRPFSIYDMGWFRQAPDKERESVAVINLSRGNTYYADSVKGRFTISRDNAKNTVYLQMNSLRAEDTAVYSCGVDRRQYGLGIPPLADHWGQGTQVTVSS",
,,,,,,"NB194-P29-z5 (Fc fusion, not shown: IgG4 constant region of vector pCDNA3.4-IgG4) heavy: QVQLVESGGGLVQPGGSLRLSCSASGHSFSIYDMGWFRQAPDKERESVAVINFGRGTTYYAESVKGRFTISRDNAKNTVYLQMNSLRAEDTAVYSCGIDRRQYGLGIPPLADHWGQGSQVTVSS",Kd (PD-1): 0.2 nM; koff (PD-1): 2.43e-05 s⁻¹; kon (PD-1): 121000 M⁻¹ s⁻¹
1.01,9.88e-05,97600,,,,"NB194-z2 (Fc fusion, format not restated; not shown: IgG4 constant region of vector pCDNA3.4-IgG4) heavy: EVQLVESGGGLVQPGGSLRLSCAASGRPFSIYDMGWFRQAPDKERESVAVISLSRGNTYYADSVKGRFTISRDSAKNTVYLQMNSLRAEDTAVYSCGVDRRQYGLGIPPLADHWGQGTQVTVSS",
0.586,7.79e-05,133000,,,,"NB194-z4 (Fc fusion, format not restated; not shown: IgG4 constant region of vector pCDNA3.4-IgG4) heavy: EVQLVESGGGLVQPGGSLRLSCAASGRPFSIYDMGWFRQAPDKERESVAVINLARGNTYYADSVKGRFTISRDNAKNTVYLQMNSLRAEDTAVYSCGVDRRQYGLGIPPLADHWGQGTQVTVSS",
0.837,0.000107,128000,,,,"NB194-z1 (Fc fusion, format not restated; not shown: IgG4 constant region of vector pCDNA3.4-IgG4) heavy: EVQLVESGGGLVQPGGSLRLSCAASGRPFSIYDMGWFRQAPDKERESVAVISLSRGNTYYADSVKGRFTISRDNAKNTVYLQMNSLRAEDTAVYSCGVDRRQYGLGIPPLADHWGQGTQVTVSS",
,,,6.21,0.000309,49700,"NB171 (Fc fusion, not shown: IgG4 constant region of vector pCDNA3.4-IgG4) heavy: QVQLVESGGGLVQAGGSLRLSCAASGRTFSSYAMGWFRQALGKEREWIAGVSMSGRTTYYAAPVKDRFTISRDNAKNTVTLQMNSLKPEDTAVYYCAAGRAQAEIPIMRAQEYDSWGQGTQVTVSS",
,,,83.1,0.000179,2150,"NB173 (Fc fusion, not shown: IgG4 constant region of vector pCDNA3.4-IgG4) heavy: QVQLQESGGGLVQAGGSLRLSCAASGRSFNSYAMGWFRQAPGKEREFVAAISQNGGTQGYAEAVKDRFTISRDNTNKVVALQMNSLKPEDTAAYYCAADGDASDISYAPPRDYEYDYWGQGTQVTVSS",
,,,10.4,0.000508,49000,"NB215 (Fc fusion, not shown: IgG4 constant region of vector pCDNA3.4-IgG4) heavy: EVQVVESGGGLVQAGDSLRLSCAASGGTISGYEMGWFRQAPGKEREFVAGISRNGRSTGYSDSAKDRFTISRDNAKNTVYLQMNSLKPEDTAVYYCAAGLKADYGDSYVDTSTRNYNYWGQGTQVTVSS",
,,,0.219,0.000323,1.48e+06,"NB220 (Fc fusion, not shown: IgG4 constant region of vector pCDNA3.4-IgG4) heavy: QVQLQESGGGLLQAGDSLRLSCIVSGRTFSSYAIGWFRQAPGKEREFVAGINWSGRSQYYSESVKDRFTVSIDNAKNTVYLQMNSLKPEDTAVYYCAAERHLGVPTVRDDEYDDWGQGTQVTVSS",
,,,1.33,0.003,2.26e+06,"NB211 (Fc fusion, not shown: IgG4 constant region of vector pCDNA3.4-IgG4) heavy: EVQVVETGGGLAQAGGSLRLSCAASGRTFSGYTVGWYRQSPGKEREFVAAISYSGGSTDYADSVKGRFTISRDNANNTVYLQMGSLKAEDTAVYYCNRVIRGTRDPSIYYVMDYWGKGTLVTVSS",
,,,0.149,0.000306,2.05e+06,"NB222 (Fc fusion, not shown: IgG4 constant region of vector pCDNA3.4-IgG4) heavy: QVQLVESGGGLVQAGGSLRLSCAASGGTFSNFNVGWFRQAPGKEREFVAASNWSAGTTHYSDSVKGRFTISRDNAANTAYLQMNSLRPDDTAVYYCNRVIRGTTYPDVYYGMDYWGKGTLVTVSS",
,,,2.75,0.000153,55800,"NB147 (Fc fusion, not shown: IgG4 constant region of vector pCDNA3.4-IgG4) heavy: EVQVVESGGGVVQAGDSLRLSCVASGRTFSSVAMGWFRQAPGKEREFVAAISRSGGSAGYSDSVKDRSTISRDNAKNTVYLQMNSLKPEDTAVYFCAASELDFCSTLGCYDYWGQGIQVTFSS",
,,,0.292,6.88e-05,236000,"NB734 (Fc fusion, not shown: IgG4 constant region of vector pCDNA3.4-IgG4) heavy: QVQLVETGGGLVQAGGSLRLSCAASGDTILFSAVGWHRQAPGKERELVAAITNSGVTYYADSVKGRFSISRDNAKNTVYLQMNSLKPEDTAVYYCNAGAPPPGEFGYDESDYWGQGTQVTVSS",
,,,6.39,0.000863,135000,"NB223 (Fc fusion, not shown: IgG4 constant region of vector pCDNA3.4-IgG4) heavy: EVQLVESGGGLVQAGGSLRLSCAASGRTFSSYGMGWFRQAPGKEREFVAAVNWSNSSAYYADSVKDRFTISSDNAKSTIYLQMNSLKPEDTAVYYCRPYSDYVTYDPDDYDYWGQGTQVTVSS",
,,,,,,"NB194-P29-z1 (Fc fusion, not shown: IgG4 constant region of vector pCDNA3.4-IgG4) heavy: QVQLVESGGGLVQPGGSLRLSCSASGHSFSIYDMGWFRQAADKERESVAVINFGRGTTYYAESVKGRFTISRDNAKNTVYLQMNSLRAEDTAVYSCGIDRRQYGLGIPPLADHWGQGSQVTVSS",Kd (PD-1): 0.263 nM; koff (PD-1): 3.06e-05 s⁻¹; kon (PD-1): 117000 M⁻¹ s⁻¹
,,,,,,"NB194-P29-z3 (Fc fusion, not shown: IgG4 constant region of vector pCDNA3.4-IgG4) heavy: QVQLVESGGGLVQPGGSLTLSCSASGHSFSIYDMGWFRQAADKERESVAVINFGRGTTYYAESVKGRFTISRDNAKNTVYLQMNSLRAEDTAVYSCGIDRRQYGLGIPPLADHWGQGSQVTVSS",Kd (PD-1): 0.202 nM; koff (PD-1): 3.75e-05 s⁻¹; kon (PD-1): 186000 M⁻¹ s⁻¹
,,,,,,"NB194-P29-z7 (Fc fusion, not shown: IgG4 constant region of vector pCDNA3.4-IgG4) heavy: QVQLVESGGGLVQPGGSLRLSCSASGHSFSIYDMGWFRQAADKERESVAVINFGRGTTYYAESVKGRFTISLDNAKNTVYLQMNSLRAEDTAVYSCGIDRRQYGLGIPPLADHWGQGSQVTVSS",Kd (PD-1): 0.15 nM; koff (PD-1): 2.18e-05 s⁻¹; kon (PD-1): 145000 M⁻¹ s⁻¹
,,,,,,"NB194-P29-z8 (Fc fusion, not shown: IgG4 constant region of vector pCDNA3.4-IgG4) heavy: QVQLVESGGGLVQPGGSLRLSCSASGHSFSIYDMGWFRQAPGKERESVAVINFGRGTTYYAESVKGRFTISRDNAKNTVYLQMNSLRAEDTAVYSCGIDRRQYGLGIPPLADHWGQGSQVTVSS",Kd (PD-1): 0.235 nM; koff (PD-1): 2.54e-05 s⁻¹; kon (PD-1): 108000 M⁻¹ s⁻¹
,,,,,,"NB194-P29-z2 (Fc fusion, not shown: IgG4 constant region of vector pCDNA3.4-IgG4) heavy: QLQLVESGGGLVQPGGSLRLSCSASGHSFSIYDMGWFRQAADKERESVAVINFGRGTTYYAESVKGRFTISRDNAKNTVYLQMNSLRAEDTAVYSCGIDRRQYGLGIPPLADHWGQGSQVTVSS",Kd (PD-1): 0.129 nM; koff (PD-1): 1.66e-05 s⁻¹; kon (PD-1): 129000 M⁻¹ s⁻¹
,,,,,,"NB194-P29-z6 (Fc fusion, not shown: IgG4 constant region of vector pCDNA3.4-IgG4) heavy: QVQLVESGGGLVQPGGSLRLSCSASGHSFSIYDMGWFRQAAGKERESVAVINFGRGTTYYAESVKGRFTISRDNAKNTVYLQMNSLRAEDTAVYSCGIDRRQYGLGIPPLADHWGQGSQVTVSS",Kd (PD-1): 0.268 nM; koff (PD-1): 3.02e-05 s⁻¹; kon (PD-1): 113000 M⁻¹ s⁻¹
,,,,,,"NB194-P29-z4 (Fc fusion, not shown: IgG4 constant region of vector pCDNA3.4-IgG4) heavy: QVQLVESGGGLVQPGGSLRLSCTASGHSFSIYDMGWFRQAADKERESVAVINFGRGTTYYAESVKGRFTISRDNAKNTVYLQMNSLRAEDTAVYSCGIDRRQYGLGIPPLADHWGQGSQVTVSS",Kd (PD-1): 0.222 nM; koff (PD-1): 2.61e-05 s⁻¹; kon (PD-1): 117000 M⁻¹ s⁻¹
,,,7.03,0.00092,131000,"NB532 (Fc fusion, not shown: IgG4 constant region of vector pCDNA3.4-IgG4) heavy: QVQLVETGGGLVQAGGSLRLSCAASGRTFSSYNMGWFRQAPGKEREFVAAISWSGGSQGYAAAVKDRFTISRDNAKNTVYLQMNSLKAEDTAVYYCAAKYHSGSYYYTSIRPEEYDYWGQGTQVTVSS",
,,,0.328,6.77e-05,206000,"NB202 (Fc fusion, not shown: IgG4 constant region of vector pCDNA3.4-IgG4) heavy: EVQVVESGGGLVQAGGSLRLSCTASGDTRLASAMGWYRQAPGKERELVAAITNSGLTYYADSVEGRFTISRDSAKNTVYLQMNSLKPEDTAVYYCNAGAPPPGGLGYDESDYWGQGTQVTVSS",
